Reference: patent US7183387 (Genentech, dated 2007)

T1: human FcγRIIA-R131 α subunit extracellular domain-His6-GST fusion (human, UniProt P12318 34-217)
T1 construct: ECD-6His-GST fusion made in 293 cells; also called FcγRIIA-Arg131; not shown: glutathione S transferase (GST)
T1 sequence: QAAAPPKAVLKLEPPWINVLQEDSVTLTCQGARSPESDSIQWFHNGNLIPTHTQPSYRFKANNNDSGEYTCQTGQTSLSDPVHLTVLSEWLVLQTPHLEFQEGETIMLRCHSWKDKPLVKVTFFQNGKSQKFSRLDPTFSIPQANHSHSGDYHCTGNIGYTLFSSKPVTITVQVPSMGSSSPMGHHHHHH


Key:
[1] = molecular target: T2, human FcγRIIIA-V158 α subunit extracellular domain-His6-GST fusion (human, UniProt P08637 17-208); assay: ELISA, IgG monomer, receptor coated
T2 construct: ECD-6His-GST fusion made in 293 cells; also called FcγRIIIA-Val158; not shown: glutathione S transferase (GST)

[2] = molecular target: T1, human FcγRIIA-R131 α subunit …; assay: ELISA, IgG complex, receptor coated
[3] = molecular target: T3, human FcγRIIIA-F158 α subunit extracellular domain-His6-GST fusion (human, UniProt P08637 17-208); assay: ELISA, IgG complex, receptor coated
T3 construct: ECD-6His-GST fusion made in 293 cells; also called FcγRIIIA-Phe158; not shown: glutathione S transferase (GST)
T3 sequence (P08637 other isoform, or with tags, fused parts or gaps, form in doubt): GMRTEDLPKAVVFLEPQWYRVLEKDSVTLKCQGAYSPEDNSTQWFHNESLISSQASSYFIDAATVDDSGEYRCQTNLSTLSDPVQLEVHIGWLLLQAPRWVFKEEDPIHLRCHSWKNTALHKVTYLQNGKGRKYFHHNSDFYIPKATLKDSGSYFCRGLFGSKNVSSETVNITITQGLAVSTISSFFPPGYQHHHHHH

T2 sequence (P08637 other isoform, or with tags, fused parts or gaps, form in doubt): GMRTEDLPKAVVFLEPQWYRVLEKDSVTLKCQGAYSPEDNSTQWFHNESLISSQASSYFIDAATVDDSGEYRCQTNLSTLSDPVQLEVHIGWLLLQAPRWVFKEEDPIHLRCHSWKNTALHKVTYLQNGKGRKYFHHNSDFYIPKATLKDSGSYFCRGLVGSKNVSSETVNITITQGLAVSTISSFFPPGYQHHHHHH

ratio of binding, variant/native IgG1 (mean) [1]	ratio of binding, variant/native IgG1 (mean) [2]	ratio of binding, variant/native IgG1 (mean) [3]	Binder
0.78 ratio	1.24 ratio	1.01 ratio	anti-IgE E27 IgG1 variant E283(300)A (antibody, Fc variant of E27; also called IG2 25) heavy: not shown light: DIQLTQSPSSLSASVGDRVTITCRASKPVDGEGDSYLNWYQQKPGKAPKLLIYAASYLESGVPSRFSGSGSGTDFTLTISSLQPEDFATYYCQQSHEDPYTFGQGTKVEIKRTVAAPSVFIFPPSDEQLKSGTASVVCLLNNFYPREAKVQWKVDNALQSGNSQESVTEQDSKDSTYSLSSTLTLSKADYEKHKVYACEVTHQGLSSPVTKSFNRGEC
0.36 ratio	1.06 ratio	0.42 ratio	anti-IgE E27 IgG1 variant P331(350)E (antibody, Fc variant of E27; also called IG2 200) heavy: not shown light: DIQLTQSPSSLSASVGDRVTITCRASKPVDGEGDSYLNWYQQKPGKAPKLLIYAASYLESGVPSRFSGSGSGTDFTLTISSLQPEDFATYYCQQSHEDPYTFGQGTKVEIKRTVAAPSVFIFPPSDEQLKSGTASVVCLLNNFYPREAKVQWKVDNALQSGNSQESVTEQDSKDSTYSLSSTLTLSKADYEKHKVYACEVTHQGLSSPVTKSFNRGEC
1.1 ratio	0.98 ratio	0.92 ratio	anti-IgE E27 IgG1 variant E380(405)A/L309(328)A (antibody, Fc variant of E27; also called IG2 271; Glu380Ala/Leu309Ala) heavy: not shown light: DIQLTQSPSSLSASVGDRVTITCRASKPVDGEGDSYLNWYQQKPGKAPKLLIYAASYLESGVPSRFSGSGSGTDFTLTISSLQPEDFATYYCQQSHEDPYTFGQGTKVEIKRTVAAPSVFIFPPSDEQLKSGTASVVCLLNNFYPREAKVQWKVDNALQSGNSQESVTEQDSKDSTYSLSSTLTLSKADYEKHKVYACEVTHQGLSSPVTKSFNRGEC
0.83 ratio	1.03 ratio	0.85 ratio	anti-IgE E27 IgG1 variant E283(300)S (antibody, Fc variant of E27; also called IG2 227) heavy: not shown light: DIQLTQSPSSLSASVGDRVTITCRASKPVDGEGDSYLNWYQQKPGKAPKLLIYAASYLESGVPSRFSGSGSGTDFTLTISSLQPEDFATYYCQQSHEDPYTFGQGTKVEIKRTVAAPSVFIFPPSDEQLKSGTASVVCLLNNFYPREAKVQWKVDNALQSGNSQESVTEQDSKDSTYSLSSTLTLSKADYEKHKVYACEVTHQGLSSPVTKSFNRGEC
0.67 ratio	1.14 ratio	0.95 ratio	anti-IgE E27 IgG1 variant E283(300)D (antibody, Fc variant of E27) heavy: not shown light: DIQLTQSPSSLSASVGDRVTITCRASKPVDGEGDSYLNWYQQKPGKAPKLLIYAASYLESGVPSRFSGSGSGTDFTLTISSLQPEDFATYYCQQSHEDPYTFGQGTKVEIKRTVAAPSVFIFPPSDEQLKSGTASVVCLLNNFYPREAKVQWKVDNALQSGNSQESVTEQDSKDSTYSLSSTLTLSKADYEKHKVYACEVTHQGLSSPVTKSFNRGEC
0.68 ratio	0.87 ratio	0.66 ratio	anti-IgE E27 IgG1 variant E294(311)A (antibody, Fc variant of E27; also called IG2 33) heavy: not shown light: DIQLTQSPSSLSASVGDRVTITCRASKPVDGEGDSYLNWYQQKPGKAPKLLIYAASYLESGVPSRFSGSGSGTDFTLTISSLQPEDFATYYCQQSHEDPYTFGQGTKVEIKRTVAAPSVFIFPPSDEQLKSGTASVVCLLNNFYPREAKVQWKVDNALQSGNSQESVTEQDSKDSTYSLSSTLTLSKADYEKHKVYACEVTHQGLSSPVTKSFNRGEC
1.23 ratio	0.87 ratio	1.05 ratio	anti-IgE E27 IgG1 variant E333(352)G (antibody, Fc variant of E27; also called IG2 178) heavy: not shown light: DIQLTQSPSSLSASVGDRVTITCRASKPVDGEGDSYLNWYQQKPGKAPKLLIYAASYLESGVPSRFSGSGSGTDFTLTISSLQPEDFATYYCQQSHEDPYTFGQGTKVEIKRTVAAPSVFIFPPSDEQLKSGTASVVCLLNNFYPREAKVQWKVDNALQSGNSQESVTEQDSKDSTYSLSSTLTLSKADYEKHKVYACEVTHQGLSSPVTKSFNRGEC
0.89 ratio	1.12 ratio	1.19 ratio	anti-IgE E27 IgG1 variant E283(300)Q (antibody, Fc variant of E27; also called IG2 226) heavy: not shown light: DIQLTQSPSSLSASVGDRVTITCRASKPVDGEGDSYLNWYQQKPGKAPKLLIYAASYLESGVPSRFSGSGSGTDFTLTISSLQPEDFATYYCQQSHEDPYTFGQGTKVEIKRTVAAPSVFIFPPSDEQLKSGTASVVCLLNNFYPREAKVQWKVDNALQSGNSQESVTEQDSKDSTYSLSSTLTLSKADYEKHKVYACEVTHQGLSSPVTKSFNRGEC
0.26 ratio	0.94 ratio	0.33 ratio	anti-IgE E27 IgG1 variant P331(350)K (antibody, Fc variant of E27) heavy: not shown light: DIQLTQSPSSLSASVGDRVTITCRASKPVDGEGDSYLNWYQQKPGKAPKLLIYAASYLESGVPSRFSGSGSGTDFTLTISSLQPEDFATYYCQQSHEDPYTFGQGTKVEIKRTVAAPSVFIFPPSDEQLKSGTASVVCLLNNFYPREAKVQWKVDNALQSGNSQESVTEQDSKDSTYSLSSTLTLSKADYEKHKVYACEVTHQGLSSPVTKSFNRGEC
0.26 ratio	0.37 ratio	0.14 ratio	anti-IgE E27 IgG1 variant E294(311)D (antibody, Fc variant of E27; also called IG2 174) heavy: not shown light: DIQLTQSPSSLSASVGDRVTITCRASKPVDGEGDSYLNWYQQKPGKAPKLLIYAASYLESGVPSRFSGSGSGTDFTLTISSLQPEDFATYYCQQSHEDPYTFGQGTKVEIKRTVAAPSVFIFPPSDEQLKSGTASVVCLLNNFYPREAKVQWKVDNALQSGNSQESVTEQDSKDSTYSLSSTLTLSKADYEKHKVYACEVTHQGLSSPVTKSFNRGEC
0.79 ratio	1.01 ratio	0.84 ratio	anti-IgE E27 IgG1 variant E294(311)Q (antibody, Fc variant of E27; also called IG2 173) heavy: not shown light: DIQLTQSPSSLSASVGDRVTITCRASKPVDGEGDSYLNWYQQKPGKAPKLLIYAASYLESGVPSRFSGSGSGTDFTLTISSLQPEDFATYYCQQSHEDPYTFGQGTKVEIKRTVAAPSVFIFPPSDEQLKSGTASVVCLLNNFYPREAKVQWKVDNALQSGNSQESVTEQDSKDSTYSLSSTLTLSKADYEKHKVYACEVTHQGLSSPVTKSFNRGEC
0.88 ratio	1.15 ratio	0.68 ratio	anti-IgE E27 IgG1 variant K334(353)R (antibody, Fc variant of E27; also called Lys334Arg) heavy: not shown light: DIQLTQSPSSLSASVGDRVTITCRASKPVDGEGDSYLNWYQQKPGKAPKLLIYAASYLESGVPSRFSGSGSGTDFTLTISSLQPEDFATYYCQQSHEDPYTFGQGTKVEIKRTVAAPSVFIFPPSDEQLKSGTASVVCLLNNFYPREAKVQWKVDNALQSGNSQESVTEQDSKDSTYSLSSTLTLSKADYEKHKVYACEVTHQGLSSPVTKSFNRGEC
0.63 ratio	1.18 ratio	0.94 ratio	anti-IgE E27 IgG1 variant E283(300)N (antibody, Fc variant of E27; also called IG2 228) heavy: not shown light: DIQLTQSPSSLSASVGDRVTITCRASKPVDGEGDSYLNWYQQKPGKAPKLLIYAASYLESGVPSRFSGSGSGTDFTLTISSLQPEDFATYYCQQSHEDPYTFGQGTKVEIKRTVAAPSVFIFPPSDEQLKSGTASVVCLLNNFYPREAKVQWKVDNALQSGNSQESVTEQDSKDSTYSLSSTLTLSKADYEKHKVYACEVTHQGLSSPVTKSFNRGEC
